Experimental data as given in publication PMC4672631.
Where two headings read alike, the source gives them in different places.

Assays:
[1] = molecular target: cytochrome f (PetA) with a C-terminal six-histidine tag, F. diplosiphon SF33 (Fremyella diplosiphon SF33); experiment: co-purification
[2] = molecular target: cytochrome f (PetA) with a C-terminal six-histidine tag, F. diplosiphon SF33 (Fremyella diplosiphon SF33); experiment: co-purification; remark: listed apart in the source
[3] = molecular target: cytochrome b6f complex of spinach (monomeric unit) (spinach) (UniProt P16013); experiment: native gel or EMSA

stoichiometry N (relative to cyt f) [1]	stoichiometry N (relative to cyt f) [2]	stoichiometry N [3]	Substance
0.17	0.21	–	iron-sulfur protein (ISP), full length, F. diplosiphon SF33 (natural protein)
0.45	0.29	–	subunit IV (PetD), F. diplosiphon SF33 (natural protein)
–	–	2	cytochrome b6f complex of spinach (monomeric unit) (from UniProt P16013 36-320; P00165 1-215; P08980 52-230; P00166 1-160)
1.09	0.69	–	cytochrome b6 (PetB), F. diplosiphon SF33 (natural protein)
